Assay results: US20260250398A1 (ANTLERA THERAPEUTICS, published 2026)

Tests used:
[1] = biological target: T1, LRP6 (low-density lipoprotein receptor-related protein 6) (UniProt O75581 20-1370, limits assumed); assay: cell-based or functional assay
T1 sequence (looked up): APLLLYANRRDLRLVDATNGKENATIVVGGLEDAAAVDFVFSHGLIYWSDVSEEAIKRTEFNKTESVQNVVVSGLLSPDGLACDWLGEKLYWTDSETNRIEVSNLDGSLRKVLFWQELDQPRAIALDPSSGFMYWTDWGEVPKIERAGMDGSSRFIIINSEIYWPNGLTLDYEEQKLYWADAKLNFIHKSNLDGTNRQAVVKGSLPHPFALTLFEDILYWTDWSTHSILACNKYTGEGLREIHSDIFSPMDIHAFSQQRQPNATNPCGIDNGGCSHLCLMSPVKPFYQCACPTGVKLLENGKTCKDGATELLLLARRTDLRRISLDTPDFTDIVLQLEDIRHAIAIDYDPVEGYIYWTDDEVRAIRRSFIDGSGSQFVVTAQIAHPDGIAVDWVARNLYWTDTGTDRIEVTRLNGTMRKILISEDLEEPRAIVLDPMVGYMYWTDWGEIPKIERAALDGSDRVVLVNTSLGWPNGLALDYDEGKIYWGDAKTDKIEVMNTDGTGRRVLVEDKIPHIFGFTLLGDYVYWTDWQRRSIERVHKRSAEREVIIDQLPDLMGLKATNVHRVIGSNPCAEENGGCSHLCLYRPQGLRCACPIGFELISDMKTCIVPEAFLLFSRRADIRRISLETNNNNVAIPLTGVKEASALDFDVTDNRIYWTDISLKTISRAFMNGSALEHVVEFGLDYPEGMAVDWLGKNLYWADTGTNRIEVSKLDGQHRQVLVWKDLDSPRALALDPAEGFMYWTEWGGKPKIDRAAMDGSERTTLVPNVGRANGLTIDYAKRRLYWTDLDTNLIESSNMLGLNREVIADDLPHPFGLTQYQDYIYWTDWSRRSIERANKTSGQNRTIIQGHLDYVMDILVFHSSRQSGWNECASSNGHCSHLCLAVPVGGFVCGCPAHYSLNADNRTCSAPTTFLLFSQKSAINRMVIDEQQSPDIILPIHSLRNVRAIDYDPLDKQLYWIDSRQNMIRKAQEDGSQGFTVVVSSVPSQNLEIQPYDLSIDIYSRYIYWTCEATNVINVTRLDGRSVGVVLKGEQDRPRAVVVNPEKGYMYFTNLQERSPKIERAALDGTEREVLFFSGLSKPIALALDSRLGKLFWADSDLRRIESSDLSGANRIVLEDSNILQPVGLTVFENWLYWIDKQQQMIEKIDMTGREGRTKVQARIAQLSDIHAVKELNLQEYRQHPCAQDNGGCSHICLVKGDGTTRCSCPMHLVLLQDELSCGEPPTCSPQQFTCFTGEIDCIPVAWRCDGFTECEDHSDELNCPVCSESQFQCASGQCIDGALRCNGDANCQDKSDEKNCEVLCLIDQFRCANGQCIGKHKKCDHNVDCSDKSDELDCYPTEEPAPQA

[2] = biological target: T1, LRP6 (low-density lipoprotein …); assay: cell-based or functional assay; remark: listed apart in the source

B1: ANT-1 (LRP Diabody-Fc-FZD Fab; paratopes 2540, 2542; 5016) (bispecific antibody)
heavy 1: MNLLLILTFVAAAVAEFEVQLVESGGGLVQPGGSLRLSCAASGFNISSYYIHWVRQAPGKGLEWVASIYSSYGYTSYADSVKGRFTISADTSKNTAYLQMNSLRAEDTAVYYCARTVRGSKKPYFSGWAMDYWGQGTLVTVSSGGGGSDIQMTQSPSSLSASVGDRVTITCRASQSVSSAVAWYQQKPGKAPKLLIYSASSLYSGVPSRFSGSRSGTDFTLTISSLQPEDFATYYCQQYYFLITFGQGTKVEIKLEDKTHTKVEPKSSDKTHNCPPCPAPELLGGPSVFLFPPKPKDTLMISRTPEVTCVVVDVSHEDPEVKFNWYVDGVEVHNAKTKPREEQYNSTYRVVSVLTVLHQDWLNGKEYKCKVSNKALPAPIEKTISKAKGQPREPQVYTLPPIRELMTSNQVSLSCAVKGFYPSDIAVEWESNGQPENNYKTTPPVLDSDGSFFLVSKLTVDKSRWQQGNVFSCSVMHEALHNHYTQKSLSLSPGKSGSETPGTSESATPESGGGEVQLVESGGGLVQPGGSLRLSCAASGFNIHSSSIHWVRQAPGKGLEWVAATYSSFGSITYADSVKGRFTISADTSKNTAYLQMNSLRAEDTAVYYCARYHHPFGYALDYWGQGTLVTVSSASTKGPSVFPLAPSSKSTSGGTAALGCLVKDYFPEPVTVSWNSGALTSGVHTFPAVLQSSGLYSLSSVVTVPSSSLGTQTYICNVNHKPSNTKVDKKVEPKSCDKTHT
heavy 2: MNLLLILTFVAAAVAEFEVQLVESGGGLVQPGGSLRLSCAASGFNISYSSIHWVRQAPGKGLEWVASISPYYGYTYYADSVKGRFTISADTSKNTAYLQMNSLRAEDTAVYYCARSSYFPWFSAMDYWGQGTLVTVSSGGGGSDIQMTQSPSSLSASVGDRVTITCRASQSVSSAVAWYQQKPGKAPKLLIYSASSLYSGVPSRFSGSRSGTDFTLTISSLQPEDFATYYCQQYYWPITFGQGTKVEIKLEDKTHTKVEPKTSDKTHTCPPCPAPELLGGPSVFLFPPKPKDTLMISRTPEVTCVVVDVSHEDPEVKFNWYVDGVEVHNAKTKPREEQYNSTYRVVSVLTVLHQDWLNGKEYKCKVSNKALPAPIEKTISKAKGQPREPMVFDLPPSREEMTKNQVSLWCMVKGFYPSDIAVEWESNGQPENNYKTTPPVLDSDGSFFLYSKLTVDKSRWQQGNVFSCSVMHEALHNHYTQKSLSLSPGKSGSETPGTSESATPESGGGEVQLVESGGGLVQPGGSLRLSCAASGFNIHSSSIHWVRQAPGKGLEWVAATYSSFGSITYADSVKGRFTISADTSKNTAYLQMNSLRAEDTAVYYCARYHHPFGYALDYWGQGTLVTVSSASTKGPSVFPLAPSSKSTSGGTAALGCLVKDYFPEPVTVSWNSGALTSGVHTFPAVLQSSGLYSLSSVVTVPSSSLGTQTYICNVNHKPSNTKVDKKVEPKSCDKTHT
light: DIQMTQSPSSLSASVGDRVTITCRASQSVSSAVAWYQQKPGKAPKLLIYSASSLYSGVPSRFSGSRSGTDFTLTISSLQPEDFATYYCQQGVYLFTFGQGTKVEIKRTVAAPSVFIFPPSDEQLKSGTASVVCLLNNFYPREAKVQWKVDNALQSGNSQESVTEQDSKDSTYSLSSTLTLSKADYEKHKVYACEVTHQGLSSPVTKSFNRGEC
[1]
  TOPFLASH Maximal Signal (% Wnt3a maxima): 50 % Wnt3a maxima
[2]
  TOPFLASH % Wnt Maxima: 49 % Wnt Maxima
